Experimental data as given in US20100135997A1 (MEDGENE, published 2010).

B1: SEQ ID NO 85 (receptor)
chain: MGHLPKPTLWAEPGSVITQGSPVTLRCQGGQETQEYRLYREKKTAPWITRIPQELVKKGQFPIPSITWEHAGRYRCYYGSDTAGRSESSDPLELVVTGIYQAPTLSAQPSPVVNSGGNVTLQCDSQVAFDGFILCKEGEDEHPQCLNSQPHARGSSRAIFSVGPVSPSRRWWYRCYAYDSNSPYEWSLPSDLLELLVL
notes: mutated soluble two domain ILT-2
B2: SEQ ID NO 86 (receptor)
chain: MGHLPKPTLWAEPGSVITQGAPVTLRCQGGQETQEYRLYREKKTAPWITRIPQELVKKGQFPIPSITWEHAGRYRCYYGSDTAGRSESSDPLELVVTGVYIKPTLSAQPSPVVNSGGNVTLQCDSQVAFDGFILCKEGEDEHPQCLNSQPHARGSSRAIFSVGPVSPGRRWWYRCYAYDSNSPYEWSLPSDLLELLVL
notes: as for B1
B3: SEQ ID NO 96 (receptor)
chain: MGHLPKPTLWAEPGSVITQGSPVTLRCQGGQETQEYRLYREKKTAPQITRIPQELVKKGQFPIPSITWEHAGRYRCYYGSDTAGRSESSDPLELVVTGVYVAPTLSAQPSPVVNSGGNVTLQCDSQVAFDGFILCKEGEDEHPQCLNSQPHARGSSRAIFSVGPVSPGRRWWYRCYAYDSNSPYEWSLPSDLLELLVL
notes: as for B1
B4: SEQ ID NO 91 (receptor)
chain: MGHLPKPTLWAEPGSVITQGSPVTLRCQGGQETQEYRLYREKKTAPWITRIPQELVKKGQFPIPSVTWEHAGRYRCYYGSDTAGRSESSDPLELVVTGVYIKPTLSAQPSPVVNSGGNVTLQCDSQVAFDGFILCKEGEDEHPQCLNSQPHARGSSRAIFSVGPVSPSRRWWYRCYAYDSNSPYEWSLPSDLLELLVL
notes: as for B1
B5: SEQ ID NO 105 (receptor)
chain: MGHLPKPTLWAEPGSVITMDQPVTLRCQGGQETQEYRLYREKKTAPWITRIPQELVKKGQFPIPSITWEHAGRYRCYYGSDTSQWSASSDPLELVVTGIYLAPTLSAQPSPVVNSGGNVTLQCDSQVAFDGFILCKEGEDEHPQCLNSQPHARGSSRAIFSVGPVSPSRRWWYRCYAYDSNSPYEWSLPSDLLELLVL
notes: as for B1
B6: SEQ ID NO 92 (receptor)
chain: MGHLPKPTLWAEPGSVITQGSPVTLRCQGGQETQEYRLYREKKTAPWITRIPQELVKKGQFPIPSITWEHAGRYRCVGWAVTAGRSESSDPLELVVTGVYIKPTLSAQPSPVVNSGGNVTLQCDSQVAFDGFILCKEGEDEHPQCLNSQPHARGSSRAIFSVGPVSPSRRWWYRCYAYDSNSPYEWSLPSDLLELLVL
notes: as for B1
B7: SEQ ID NO 87 (receptor)
chain: MGHLPKPTLWAEPGSVITQGRPVTLRCQGGQETQEYRLYREKKTAPWITRIPQELVKKGQFPIPSITWEHAGRYRCYYGSDTAGRSESSDPLELVVTGVYIKPTLSAQPSPVVNSGGNVTLQCDSQVAFDGFILCKEGEDEHPQCLNSQPHARGSSRAIFSVGPVSPSRRWWYRCYAYDSNSPYEWSLPSDLLELLVL
notes: as for B1
B8: SEQ ID NO 97 (receptor)
chain: MGHLPKPTLWAEPGSVITQGSPVTLRCQGGQETQEYRLYREKKTAPWITRIPQELVKKGQFPIPSITWEHAGRYRCYYGSDTAGRSESSDPLELVVTGIYKAPTLSAQPSPVVNSGGNVTLQCDSQVAFDGFILCKEGEDEHPQCLNSQPHARGSSRAIFSVGPVSPGRRWWYRCYAYDSNSPYEWSLPSDLLELLVL
notes: as for B1
B9: SEQ ID NO 102 (receptor)
chain: MGHLPKPTLWAEPGSVITQGSPVTLRCQGGQETQEYRLYREKKTAPWITRIPQELVKKGQFPIPSITWEHAGRYRCYYGSDTAGRSESSDPLELVVTGIYQKPTLSAQPSPVVNSGGNVTLQCDSQVAFDGFILCKEGEDEHPQCLNSQPHARGSSRAIFSVGPVSPSRRWWYRCYAYDSNSPYEWSLPSDLLELLVL
notes: as for B1
B10: SEQ ID NO 98 (receptor)
chain: MGHLPKPTLWAEPGSVITQGSPVTLRCQGGQETQEYRLYREKKTAPWITRIPQELVKKGQFPIPSITWEHAGRYRCYYGSDTAGRSESSDPLELVVTGIYQRPTLSAQPSPVVNSGGNVTLQCDSQVAFDGFILCKEGEDEHPQCLNSQPHARGSSRAIFSVGPVSPGRRWWYRCYAYDSNSPYEWSLPSDLLELLVL
notes: as for B1
B11: SEQ ID NO 99 (receptor)
chain: MGHLPKPTLWAEPGSVITQGSPVTLRCQGGQETQEYRLYREKKTAPWITRIPQELVKKGQFPIPSITWEHAGRYRCYYGSDTAGRSESSDPLELVVTGIYQAPTLSAQPSPVVNSGGNVTLQCDSQVAFDGFILCKEGEDEHPQCLNSQPHARGSSRAIFSVGPVSPGRRWWYRCYAYDSNSPYEWSLPSDLLELLVL
notes: as for B1
B12: SEQ ID NO 89 (receptor)
chain: MGHLPKPTLWAEPGSVITLGQPVTLRCQGGQETQEYRLYREKKTAPWITRIPQELVKKGQFPIPSITWEHAGRYRCYYGSDTAGRSESSDPLELVVTGVYIKPTLSAQPSPVVNSGGNVTLQCDSQVAFDGFILCKEGEDEHPQCLNSQPHARGSSRAIFSVGPVSPGRRWWYRCYAYDSNSPYEWSLPSDLLELLVL
notes: as for B1
B13: SEQ ID NO 100 (receptor)
chain: MGHLPKPTLWAEPGSVITQGSPVTLRCQGGQETQEYRLYREKKTAPWITRIPQELVKKGQFPIPSITWEHAGRYRCYYGSDTAGRSESSDPLELVVTGIYLQPTLSAQPSPVVNSGGNVTLQCDSQVAFDGFILCKEGEDEHPQCLNSQPHARGSSRAIFSVGPVSPGRRWWYRCYAYDSNSPYEWSLPSDLLELLVL
notes: as for B1
B14: SEQ ID NO 106 (receptor)
chain: MGHLPKPTLWAEPGSVITLGQPVTLRCQGGQETQEYRLYREKKTAPWITRIPQELVKKGQFPIPSITWEHAGRYRCYYGSDTSQWSASSDPLELVVTGIYLAPTLSAQPSPVVNSGGNVTLQCDSQVAFDGFILCKEGEDEHPQCLNSQPHARGSSRAIFSVGPVSPSRRWWYRCYAYDSNSPYEWSLPSDLLELLVL
notes: as for B1
B15: SEQ ID NO 104 (receptor)
chain: MGHLPKPTLWAEPGSVITLGQPVTLRCQGGQETQEYRLYREKKTAPWITRIPQELVKKGQFPIPSITWEHAGRYRCYYGSDTAGRSESSDPLELVVTGIYLAPTLSAQPSPVVNSGGNVTLQCDSQVAFDGFILCKEGEDEHPQCLNSQPHARGSSRAIFSVGPVSPSRRWWYRCYAYDSNSPYEWSLPSDLLELLVL
notes: as for B1
B16: SEQ ID NO 103 (receptor)
chain: MGHLPKPTLWAEPGSVITMDQPVTLRCQGGQETQEYRLYREKKTAPWITRIPQELVKKGQFPIPSITWEHAGRYRCYYGSDTAGRSESSDPLELVVTGIYLAPTLSAQPSPVVNSGGNVTLQCDSQVAFDGFILCKEGEDEHPQCLNSQPHARGSSRAIFSVGPVSPSRRWWYRCYAYDSNSPYEWSLPSDLLELLVL
notes: as for B1
B17: SEQ ID NO 101 (receptor)
chain: MGHLPKPTLWAEPGSVITQGSPVTLRCQGGQETQEYRLYREKKTAPWITRIPQELVKKGQFPIPSITWEHAGRYRCYYGSDTAGRSESSDPLELVVTGIYKQPTLSAQPSPVVNSGGNVTLQCDSQVAFDGFILCKEGEDEHPQCLNSQPHARGSSRAIFSVGPVSPGRRWWYRCYAYDSNSPYEWSLPSDLLELLVL
notes: as for B1
B18: SEQ ID NO 90 (receptor)
chain: MGHLPKPTLWAEPGSVITQGSPVTLRCQGGQETQEYRLYREKKTAPWITRIPQELVKKGQFPIPSITWEHAGRYRCYYGSDTAGRSESSDPLELVVTGVYIKPTLSAQPSPVVNSGGNVTLQCDSQVAFDGFILCKEGEDEHPQCLNSQPHARGSSRAIFSVGPVSPGRRWWYRCYAYDSNSPYEWSLPSDLLELLVL
notes: as for B1
B19: SEQ ID NO 88 (receptor)
chain: MGHLPKPTLWAEPGSVITVGQPVTLRCQGGQETQEYRLYREKKTAPWITRIPQELVKKGQFPIPSITWEHAGRYRCYYGSDTAGRSESSDPLELVVTGVYIKPTLSAQPSPVVNSGGNVTLQCDSQVAFDGFILCKEGEDEHPQCLNSQPHARGSSRAIFSVGPVSPGRRWWYRCYAYDSNSPYEWSLPSDLLELLVL
notes: as for B1
B20: SEQ ID NO 95 (receptor)
chain: MGHLPKPTLWAEPGSVITQGSPVTLRCQGGQETQEYRLYREKKTAPWITRIPQELVKKGQFPIPSITWEHAGRYRCQGVSQTAGRSESSDPLELVVTGVYIKPTLSAQPSPVVNSGGNVTLQCDSQVAFDGFILCKEGEDEHPQCLNSQPHARGSSRAIFSVGPVSPSRRWWYRCYAYDSNSPYEWSLPSDLLELLVL
notes: as for B1
B21: SEQ ID NO 94 (receptor)
chain: MGHLPKPTLWAEPGSVITQGSPVTLRCQGGQETQEYRLYREKKTAPWITRIPQELVKKGQFPIPSITWEHAGRYRCYYGGQEGARSESSDPLELVVTGVYIKPTLSAQPSPVVNSGGNVTLQCDSQVAFDGFILCKEGEDEHPQCLNSQPHARGSSRAIFSVGPVSPSRRWWYRCYAYDSNSPYEWSLPSDLLELLVL
notes: as for B1
B22: SEQ ID NO 19 (receptor)
chain: MAGHLPKPTLWAEPGSVITMDQPVTLRCQGGQETQEYRLYREKKTAPWITRIPQELVKKGQFPIPSITWEHAGRYRCYYGSDTSQWSASSDPLELVVTGVYIKPTLSAQPSPVVNSGGNVTLQCDSQVAFDGFILCKEGEDEHPQCLNSQPHARGSSRAIFSVGPVSPSRRWWYRCYAYMSWSPYEWSLPSDLLELDVDG
notes: mutated soluble two domain ILT-2; also called clone 83; Clone c83

Biological target: T1, HLA-A*0201 loaded with the Carcinoembryonic antigen (CEA)-derived … peptide (biotin on the C-terminal biotinylation tag)
T1 construct: Soluble, biotinylated, immobilised on a streptavidin chip
Test: Biacore SPR
Procedure: SPR measures changes in refractive index expressed in response units (RU) near a sensor surface within a small flow cell, a principle that can be used to detect receptor ligand interactions and to analyse their affinity and kinetic parameters. The probe flow cells were prepared by immobilising the pMHC complexes in flow cells via biotin-tag binding. The assay was then performed by passing soluble ILT-like molecule over the surfaces of the different flow cells at a constant flow rate, measuring the SPR response in doing so.

| Binder | Kd [nM] | koff [s⁻¹] |
| --- | --- | --- |
| B1 | ≤ 1000 | ≤ 2 |
| B2 | ≤ 1000 | ≤ 2 |
| B3 | ≤ 1000 | ≤ 2 |
| B4 | ≤ 1000 | ≤ 2 |
| B5 | ≤ 1000 | ≤ 2 |
| B6 | ≤ 1000 | ≤ 2 |
| B7 | ≤ 1000 | ≤ 2 |
| B8 | ≤ 1000 | ≤ 2 |
| B9 | ≤ 1000 | ≤ 2 |
| B10 | ≤ 1000 | ≤ 2 |
| B11 | ≤ 1000 | ≤ 2 |
| B12 | ≤ 1000 | ≤ 2 |
| B13 | ≤ 1000 | ≤ 2 |
| B14 | ≤ 1000 | ≤ 2 |
| B15 | ≤ 1000 | ≤ 2 |
| B16 | ≤ 1000 | ≤ 2 |
| B17 | ≤ 1000 | ≤ 2 |
| B18 | ≤ 1000 | ≤ 2 |
| B19 | ≤ 1000 | ≤ 2 |
| B20 | ≤ 1000 | ≤ 2 |
| B21 | ≤ 1000 | ≤ 2 |
| B22 | ≤ 1000 | ≤ 2 |
